This passage reports activity results from US20120270273.

Common to all, as to assay: cell_activity
Series [1] deals with cMyc-dTALE (synthetic (Xanthomonas campestris pv. armoraciae Hax3 scaffold)). As to conditions: mCherry reporter, 293FT.
The subject of series [2] is ZF-VP64 (erbB-2 zinc finger) (synthetic). As to conditions: mCherry reporter induction, 293FT; positive control.
Series [3] has as its system Sox2-dTALE (synthetic (Xanthomonas campestris pv. armoraciae Hax3 scaffold)). To be noted: mCherry reporter; endogenous SOX2 mRNA up 5.5±0.1 fold (p227).
Series [4] deals with Klf4-dTALE (synthetic (Xanthomonas campestris pv. armoraciae Hax3 scaffold)). To be noted: mCherry reporter; endogenous KLF4 mRNA up 2.2±0.1 fold (p227).

Bounds are passed on as bounds.

c-MYC proximal promoter site showed an activity in series [1] greater than 20 fold.
erbB-2 promoter ZF site came in with an activity in series [2] of 16 fold.
SOX2 proximal promoter site showed an activity in series [3] greater than 20 fold.
Substance KLF4 proximal promoter site displayed an activity in series [4] greater than 20 fold.
